Measured values: patent publication US20190328837A1 (Stanford University, published 2019)

Legend:
wild-type CNTFR-Fc [1] = target: T1, wild-type CNTFR-Fc (human, UniProt P26992 23-342); experiment: sandwich ELISA, soluble CLCF1 titrated against 2 nM CNTFR-Fc, apparent Kd
T1 construct: also called wtCNTFR-Fc; not shown: Fc domain; captured with anti-mouse Fc antibody
T1 sequence: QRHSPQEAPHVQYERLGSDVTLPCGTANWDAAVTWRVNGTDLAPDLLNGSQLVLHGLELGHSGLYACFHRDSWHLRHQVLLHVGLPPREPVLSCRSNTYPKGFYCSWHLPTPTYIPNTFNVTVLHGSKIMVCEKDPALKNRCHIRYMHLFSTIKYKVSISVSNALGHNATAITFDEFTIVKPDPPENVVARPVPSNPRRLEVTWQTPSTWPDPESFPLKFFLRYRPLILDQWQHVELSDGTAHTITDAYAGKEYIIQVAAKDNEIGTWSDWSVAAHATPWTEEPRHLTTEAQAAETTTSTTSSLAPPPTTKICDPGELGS
Method: (§1) The CLCF1 variants isolated from screening were cloned into the pET28b bacterial expression plasmid and expressed and purified. […] A sandwich ELISA was performed using an anti-mouse Fc antibody as a capturing agent for wtCNTFR-Fc, followed by an anti-CLCF1 antibody as a detection agent for the bound complex. […] ELISA was also used to measure binding interactions with the gp130 and LIFR beta receptors.
(§2) To measure the solution-phase binding interaction between the CLCF1 constructs and CNTFR, different concentrations of soluble, recombinant CLCF1 variants and wtCLCF1 were incubated with 2 nM CNTFR-Fc in BPBS for 12 h at room temperature. The mixture was then added to 96-well plates coated with anti-mouse-Fc antibody for 1 h followed by washing with BPBS twice. Subsequently, the wells were incubated with 1:1000 diluted anti-CLCF1 rabbit antibody for 2 h at room temperature then washed four times with BPBS. The wells were incubated with a 1:1000 diluted HRP conjugated anti-rabbit antibody for 2 h at room temperature, and washed four times with BPBS. 1-Step Ultra TMB ELISA was used for the readout, which was measured using a plate reader (Tecan).

wild-type CNTFR-Fc [2] = target: T1, wild-type CNTFR-Fc; experiment: cell-free ELISA: HIS-tagged CLCF1 constructs with 2 nM CNTFR-Fc, captured by anti-HIS, detected by anti-mouse HRP; FRR-CLCF1 parent, no added mutation
Method: (§3) 96-well plates were coated with 10 μg/mL of anti-HIS antibody overnight and blocked with 5% milk for 1 h. The plates were then washed twice with BPBS. Different concentrations of soluble constructs of HIS-tagged CLCF1 variants were incubated with 2 nM CNTFR-Fc in BPBS for 12 h at room temperature. The mixture was then added to 96-well plates coated with anti-HIS antibody for 1 h followed by washing with BPBS twice. Subsequently, the wells were incubated with 1:1000 diluted HRP conjugated anti-mouse antibody for 1 h at room temperature then washed four times with PBS. 1-Step Ultra TMB ELISA (Thermo Fisher Scientific) was used for the readout detected using a plate reader (Tecan).

wild-type CNTFR-Fc [3] = target: T1, wild-type CNTFR-Fc; experiment: sandwich ELISA: soluble CLCF1 incubated with CNTFR-Fc, captured by anti-mouse Fc, detected by anti-CLCF1; sandwich ELISA, anti-mouse Fc capture, anti-CLCF1 detection
Method: as §1, §2

wild-type CNTFR-Fc [4] = target: T1, wild-type CNTFR-Fc; experiment: sandwich ELISA, soluble CLCF1 titrated against 2 nM CNTFR-Fc, anti-mouse-Fc capture, anti-CLCF1 detection
Method: as §1, §2

wild-type CNTFR-Fc [5] = target: T1, wild-type CNTFR-Fc; experiment: cell-free ELISA, HIS-tagged soluble CLCF1 titrated against 2 nM CNTFR-Fc, anti-HIS capture, HRP anti-mouse detection
Method: as §3

B1: recombinant soluble FRR-CLCF1 (L86F, Q96R, H148R) (ligand)
chain: LNRTGDPGPGPSIQKTYDLTRYLEHQLRSLAGTYLNYLGPPFNEPDFNPPRLGAETLPRATVDLEVWRSLNDKLRLTQNYEAYSHFLCYLRGLNRRAATAELRRSLAHFCTSLQGLLGSIAGVMAALGYPLPQPLPGTEPTWTPGPARSDFLQKMDDFWLLKELQTWLWRSAKDFNRLKKKMQPPAAAVTLHLGAHGF
notes: Expressed in E. coli from pET28b
Question: B1 was tested. Which Kd (wild-type CNTFR-Fc [1]) did it give?
Answer: The Kd was 0.86 nM.

Question: What about the Kd (wild-type CNTFR-Fc [2]) of the same binder?
Answer: The Kd was 0.869 nM.

Question: What about the Kd (wild-type CNTFR-Fc [3]) of the same binder?
Answer: The Kd was roughly 0.83 nM.

Question: What about the “EC50 (read off the curve)” value (wild-type CNTFR-Fc [4]) of the same binder?
Answer: The value was roughly 1 nM.

Question: And the “EC50 (read off the curve)” value (wild-type CNTFR-Fc [5])?
Answer: Its value is roughly 1 nM.
